Laboratory results reported in PMC5770198.

B1: SbCYP82D1.1 (Scutellaria baicalensis) (protein)
chain: MELSSVIYGAIALLSLFYCYLHFSKPKKSSLNAPPEAGGARFITGHLHLMDGRSASDKLPHINLGLLADQHGPIFTIRLGVHRAVVVSSWELAKEIFTTHDTAVMARPRLIADDYLSYDGASLGFSPYGPYWREIRKLVTTELLSARRIELQRATRVREITQFTGELYKLWEEKKDGSGRVLVDMKQWLGNLSLNLVSRMVVGKRFYGGDDSETTKRWRGVMREFFQLIGQFIPGDGLPFLRWLDLGGFEKRTRDTAYELDKIIAMWLAEYRKREYSGDDKEQCFMALMLSLVQANPTLQLHYDADTIIKATCQVLISAASDTTTVILIWVISLLLNNADVLKKVQEELDEQVGRERRVEESDISNLPYLQAVVKETMRLYPPAPFAGVRAFSEDCTVGGYHIQKGTFLIVNLWKLHRDPRVWSDDALEFKPQRFFDKKVEVKGQDFELMPFGGGRRMCPGSNLGMHMVHFVLANILQAFDITTGSTVDMTESVGLTNMKATPLDAILTPRLSPTLY
B2: SbCYP82D2 (Scutellaria baicalensis) (protein)
chain: MLYDNSQYLAMEFSSAIYGAIAFFLFLYYCLLYTTSSKPNTRAYKAPPEAGGARLFSGHLHLMAGGTTGELPHINLANLADKHGPVFTIRLGVKRALVVSSWESAKELFTTCDVAVSSRPRMKAAKLLGYDFAMFGFAPYGAYWRELRKLISVELLSTRRMELQKEVRDSETRESIKELYKLWEERSEGSDSVLVDMKQWFGDLNLNVVLRMVAGKRWIGPETGRWREVLRDFFYLAGMFVPADAFPFLGWLDLGGHEKRMRQTAKELDGIVGGWVAEHREKEYSGEDKPKDFVDVMLSVVQGSSLRADYDADTIIKATCEALIVGGSDTTTVMLIWTLSFLLNNRHVLRKAQEELDKHVGRERRVNQSDINNLVYLQAIVKETLRLYPAGPIGGIREFTQDCQVGGYHVPKGTWLIVNLWKLHRDPKVWSEDCLEFRPERFLNKNIDVRGQDFELIPFGGGRRICPGANFGLHMLHLVLANLLQAFELTTVSDQVIDMTESAGMTNMKATPLNVLVAPRLSPTLY

Substrate: O=c1cc(-c2ccccc2)oc2cc(O)cc(O)c12
Assay: cells, lysate or membranes
Details: 1 mM NADPH, 100 mM sodium phosphate pH 7.9, 0.5 mM reduced glutathione, 28°C, chrysin 0.1-5 μM

Row | Protein | Km (3 min) [µM] | Km (30 min) [µM]
1 | B1 | 0.121 | 
2 | B2 |  | 1.051
